In data set [1] the target is T1, myostatin (Homo sapiens, UniProt O14793).
T1 construct: To produce mature myostatin, the pooled promyostatin was enzymatically cleaved between the propeptide and mature myostatin C terminal; made in house; host or cells: E. coli K-12 strain 2596 (ATCC #202174)
T1 sequence (O14793 267-375): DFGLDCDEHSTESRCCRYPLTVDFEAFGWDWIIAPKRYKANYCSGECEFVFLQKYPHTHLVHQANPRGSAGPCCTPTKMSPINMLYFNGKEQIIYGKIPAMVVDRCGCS
The data set is described as follows: C2C12 pMARE-luc cell based myostatin activity assay. The following applies: Table VIII; affinity matured peptibodies; a range of values is given. The text has this: A myostatin-responsive reporter cell line was generated by transfection of C2C12 myoblast cells (ATCC No: CRL-1772) with a pMARE-luc construct. The pMARE-luc construct was made by cloning twelve repeats of the CAGA sequence, representing the myostatin/activin response elements (Dennler et al. EMBO 17: 3091-3100 (1998)) into a pLuc-MCS reporter vector (Stratagene cat #219087) upstream of the TATA box. The myoblast C2C12 cells naturally express myostatin/activin receptors on its cell surface. When myostatin binds the cell receptors, the Smad pathway is activated, and phosphorylated Smad binds to the response element (Maciasi-Silva et al. Cell 87:1215 (1996)), resulting in the expression of the lucerase gene. Luciferase activity is then measured using a commercial luciferase reporter assay kit (cat #E4550, Promega, Madison, Wis.) according to manufacturer's protocol. A stable line of C2C12 cells that had been transfected with pMARE-luc (C2C12/pMARE clone #44) was used to measure myostatin activity according to the following procedure.
Equal numbers of the reporter cells (C2C12/pMARE clone #44) were plated into 96 well cultures. A first round screening using two dilutions of peptibodies was performed with the myostatin concentration fixed at 4 nM. […] Myostatin activity was measured by determining the luciferase activity in the treated cultures. […]

For another data set, the system named is C57B/6 mice. The data set is described as follows: Gripping strength in C57B/6 mice. It counts as in vivo, mouse. The settings on record: 4 month old male C57B/6 mice; s.c. 2 injections per week, 5 mg/kg per week, 30 days; measured day 18 of recovery. The procedure:
Normal age-matched 4 month old male C57B/6 mice were treated for 30 days with 2 injections per week subcutaneous injections 5 mg/kg per week of 2× mTN8-19-33, 2× mTN8-19-7, and huFc vehicle control group (10 animals/group). The animals were allowed to recover without any further injections. Gripping strength was measured on day 18 of the recovery period. Gripping strength was measured using a Columbia Instruments meter, model 1027 dsm (Columbus, Ohio).

The nature of data set [2]: In vivo pharmacokinetics in CD1 nu/nu mice. Further details: species or system mouse. The settings on record: 10 mg/kg and 5 mg/kg, peptibodies without the LE sequences. The procedure: In vivo pharmacokinetics experiments were performed using representative peptibodies without the LE sequences. 10 mg/kg and 5 mg/kg dosages were administered to CD1 nu/nu mice and the following parameters determined. Cmax (ug/mL), area under the curve (AUC) (ug-hr/mL), and half-life (hr).

For the next data set, the system named is CD1 nu/nu mouse model. Kind of data set: In vivo anabolic activity in CD1 nu/nu mouse model. The following applies: CD1 nu/nu male mice; 1 and 3 mg/kg twice weekly for 35 days; vs 1× peptibody or huFc control; FIG. 5. The text has this: The CD1 nu/nu mouse model (Charles River Laboratories, Massachusettes) was used to determine the in vivo efficacy of the peptibodies of the present invention which included the human Fc region (huFc). This model responded to the inhibitors of the present invention with a rapid anabolic response which was associated with increased dry muscle mass and an increase in myofibrillar proteins but was not associated with accumulation in body water content.
A group of 10 8 week old CD1 nu/nu mice were treated twice weekly or once weekly with dosages of 1 mg/kg, 3 mg/kg and 10 mg/kg (subcutaneous injection). The control group of 10 8 week old CD1 nu/nu mice received a twice weekly (subcutaneous) injection of huFc (vehicle) at 10 mg/kg. The animals were weighed every other day and lean body mass determined by NMR on day 0 and day 13. The animals are then sacrificed at day 14 and the size of the gastrocnemius muscle determined.
In another example, the 1× mTN8-19-32 peptibody was administered to CD1 nu/nu mice in a biweekly injection of 1 mg/kg, 3 mg/kg, 10 mg/kg, and 30 mg/kg compared with the huFc control (vehicle).
CD1 nu/nu male mice (10 animals per group) were treated with twice weekly injections of 1 mg/kg and 3 mg/kg of 1× mTN8-19-7 and 2× mTN8-19-7 for 35 days, while the control group (10 animals) received twice weekly injections of huFc (3 mg/kg).

Data set [3] concerns the target T1, myostatin. Kind of data set: BIAcore direct binding affinity assay on immobilized myostatin. The following applies: Table III. The procedure: An affinity analysis of each candidate myostatin peptibody was performed on a BIAcore® 3000 (Biacore, Inc., Piscataway, N.J.), apparatus using sensor chip CM5, and 0.005 percent P20 surfactant (Biacore, Inc.) as running buffer.
Direct binding assays were used to screen and rank the peptibodies in order of their ability to bind to immobilized myostatin. Binding assays were carried by injection of two concentrations (40 and 400 nM) of each candidate myostatin-binding peptibody to the immobilized myostatin surface at a flow rate of 50 μl/min for 3 minutes. After a dissociation time of 3 minutes, the surface was regenerated. Binding curves were compared qualitatively for binding signal intensity, as well as for dissociation rates. Peptibody binding kinetic parameters including ka (association rate constant), kd (dissociation rate constant) and KD (dissociation equilibrium constant) were determined using the BTA evaluation 3.1 computer program (Biacore, Inc.). The lower the dissociation equilibrium constants (expressed in nM), the greater the affinity of the peptibody for myostatin.

B1: 2xmTN8-19-7: 2x peptibody, two mTN8-19-7 peptides in tandem on Fc (SEQ ID NO: 615) (protein)
chain: GGGGGAQLADHGQCIRWPWMCPPEGWELEGSGSATGGSGSTASSGSGSATGLADHGQCIRWPWMCPPEGWELE
modifications: Peptibody
As for B1, in the data set with myostatin [1], the IC50 is 0.857 to 2.65 nM. Further, the “increase in gripping strength compared with control-treated mice” value with C57B/6 mice is recorded as 15%. Further, in data set [2], the half-life result is on record as “about 106 hours”. Besides, in the data set on CD1 nu/nu mouse model, the body weight gain entry is “greater body weight gain” and the “lean carcass weight at necropsy” value is given as “greater”.

B2: ActRIIB/Fc: soluble receptor fusion protein actRIIB/Fc (R&D Systems) (protein)
chain: SGRGEAETRECIYYNANWELERTNQSGLERCEGEQDKRLHCYASWRNSSGTIELVKKGCWLDDFNCYDRQECVATEENPQVYFCCCEGNFCNERFTHLPEAGGPEVTYEPPPTAPT
modifications: left off: a dimerising Fc or GST
For B2, in the data set with myostatin [3], the Kd was approximately 7 nM.

B3: 2xmTN8-19-7(-LE): 2x mTN8-19-7 peptibody with the LE sequences deleted (SEQ ID NO: 617) (protein)
chain: GGGGGAQLADHGQCIRWPWMCPPEGWEGSGSATGGSGGGASSGSGSATGLADHGQCIRWPWMCPPEGWE
modifications: Peptibody
On to B3, for which, in the data set with myostatin [1], the IC50 is 1.08 to 1.22 nM.

Source of the values: patent US8920798B2, “Myostatin binding agents, nucleic acids encoding the same, and methods of treatment” (Amgen Inc., priority 2002, dated 2014).
